According to article PMC10949515 (Journal of Virology, 2024):
Residue numbers refer to the chain shown, from its start.

T1: human FLNB C-terminal fragment R23–24, His6-tagged (human, UniProt O75369 2379-2601)
T1 construct: also called R23–R24; FLNB R23-24
T1 sequence (looked up): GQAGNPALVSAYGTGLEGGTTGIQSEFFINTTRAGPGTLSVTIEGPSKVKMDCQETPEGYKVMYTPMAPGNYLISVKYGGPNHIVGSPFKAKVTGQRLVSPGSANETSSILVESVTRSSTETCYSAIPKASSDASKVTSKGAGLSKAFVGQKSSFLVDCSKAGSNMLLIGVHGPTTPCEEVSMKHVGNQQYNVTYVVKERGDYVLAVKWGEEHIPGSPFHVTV

T2: FLNB R22–24 dimerization-deficient mutant (M2544E, L2546D), His6-tagged (human, UniProt O75369 2282-2601, M2544E | L2546D)
T2 construct: also called mR22–R24; mR22–24
T2 sequence (looked up): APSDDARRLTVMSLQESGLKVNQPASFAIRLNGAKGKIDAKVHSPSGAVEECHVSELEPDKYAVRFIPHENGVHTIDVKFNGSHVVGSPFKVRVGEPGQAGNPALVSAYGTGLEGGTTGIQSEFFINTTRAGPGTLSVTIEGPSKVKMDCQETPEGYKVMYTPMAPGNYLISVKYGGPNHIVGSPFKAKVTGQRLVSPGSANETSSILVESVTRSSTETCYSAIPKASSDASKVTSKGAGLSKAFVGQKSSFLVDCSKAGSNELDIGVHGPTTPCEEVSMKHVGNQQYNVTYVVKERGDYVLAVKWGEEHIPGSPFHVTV

B1: human FLNB C-terminal fragment R22–24, His6-tagged (domain or fragment, UniProt O75369 2282-2601, looked up)
chain: T2 sequence (looked up) with E263M, D265L
notes: also called R22–R24; FLNB R22-24
B2: C4 N-terminal residues 1–149, His6-tagged (domain or fragment)
chain: MDTIKIFNHGEFDTIRNELVNLLKVVKWNTINSNVTVSSTDTIDISDCIREILYKQFKNVRNIEVSSDISFIKYNRFNDTTLTDDNVGYYLVIYLNRTKSVKTLIYPTPETVITSSEDIMFSKSLNFRFENVKRDYKLVMCSISLTYKP
notes: also called C4-N 1–149

Assays:
[1] = target: the molecule itself
[2] = target: T1, human FLNB C-terminal fragment R23–24, …; test: ITC; conditions: both partners purified
[3] = target: B1; test: ITC; conditions: both partners purified
[4] = target: T2, FLNB R22–24 dimerization-deficient …; test: SEC; conditions: both partners purified

| Binder | binding result [1] | Kd [2] | Kd [3] | binding result [4] |
| --- | --- | --- | --- | --- |
| B1 | binds | – | – | – |
| B2 | – | < 0.001 µM | 0.0415 ± 0.03 µM | binds |
